Read-outs that look alike come from different tables or passages of the source.

The values that follow come from publication PMC5818494, “Specific Recognition of Arginine Methylated Histone Tails by JMJD5 and JMJD7” (Scientific Reports, 2018).

The target in assay [1] is calf bulk histone. Nature of the assay: SPR; Biacore; 10 μg/ml calf bulk histone in 50 mM sodium acetate pH 5.0 coated onto a CM5 chip; enzyme injected at different concentrations; room temperature; non-linear binding kinetics, ranges estimated.
Assay [2] deals with calf bulk histone. Described as above. The source holds these as a separate data set.
Assay [3] addresses histone H3 peptide pH3K4(me2) N-terminal tail peptide (Homo sapiens) (UniProt P68431). The settings on record: cited from earlier work.
For assay [4], the target named is histone H3 peptide (pH3) N-terminal tail peptide (Homo sapiens) (UniProt P68431). Description: fluorescence polarization. The following applies: cited from earlier work.
Assay [5] concerns the target histone H3 peptide pH3R2me2a N-terminal tail peptide (Homo sapiens) (UniProt P68431). Description: fluorescence polarization. The settings on record: cited from earlier work. (Fluorescence polarisation rises when a labelled molecule tumbles more slowly, as on binding a larger partner.)

Chain of c-JMJD5 catalytic core (Q8N371 183-416): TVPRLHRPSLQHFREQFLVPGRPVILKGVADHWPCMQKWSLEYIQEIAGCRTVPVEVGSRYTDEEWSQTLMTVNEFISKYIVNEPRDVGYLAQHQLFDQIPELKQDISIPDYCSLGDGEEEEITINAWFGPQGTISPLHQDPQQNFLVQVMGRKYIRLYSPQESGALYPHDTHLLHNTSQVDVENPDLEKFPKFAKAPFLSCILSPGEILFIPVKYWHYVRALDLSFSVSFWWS
Chain of c-JMJD5 (JMJD5 residues 183–416, lacking the N-terminal domain) (Q8N371 183-416): as above
Chain of JMJD7 (mouse), JMJD7 protein alone generated from GST-JMJD7 fusion protein (P0C872 whole entry, the tested form may be a part): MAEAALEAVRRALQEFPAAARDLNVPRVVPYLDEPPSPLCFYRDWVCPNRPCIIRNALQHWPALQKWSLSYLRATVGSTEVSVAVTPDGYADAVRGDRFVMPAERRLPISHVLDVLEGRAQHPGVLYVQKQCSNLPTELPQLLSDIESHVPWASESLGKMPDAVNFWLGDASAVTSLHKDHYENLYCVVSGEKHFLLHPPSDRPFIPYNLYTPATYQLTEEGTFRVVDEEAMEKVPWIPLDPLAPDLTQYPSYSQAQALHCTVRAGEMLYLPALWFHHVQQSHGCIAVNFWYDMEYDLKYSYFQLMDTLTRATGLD

Regarding “JMJD7 (mouse), JMJD7 protein alone generated from GST-JMJD7 fusion protein (from UniProt P0C872 1-316) (enzyme)”, the values for the dissociation constant Kd in assay [1] and in assay [2] were 1 to 50 µM and 1 to 10 µM, respectively.
The corresponding values for “c-JMJD5 (JMJD5 residues 183–416, lacking the N-terminal domain) (from UniProt Q8N371 183-416) (domain or fragment)” are 1 to 50 µM and 1 to 10 µM.
With “c-JMJD5 catalytic core (from UniProt Q8N371)”, the Kd in assay [3] was 4 µM; in assay [4] it was 7 µM; in assay [5], 0.112 µM.

A word on the Kd: it is the equilibrium constant for the complex coming apart.
